Laboratory results from patent US8840891 (RSR, dated 2014).
Blank lines part the entries; values can stand above or below the molecule they belong to.

Tests used:
[1] = target: human TSHR (wild type) expressed in CHO cells (human) (UniProt P16473); test: cell-based or functional assay
[2] = target: human TSHR, wild type, expressed on CHO cells (human) (UniProt P16473); test: cell-based or functional assay
[3] = target: human TSHR expressed on CHO cells (human) (UniProt P16473); test: cell-based or functional assay
[4] = target: wild type human TSHR (human) (UniProt P16473); test: cell-based or functional assay
[5] = target: T1, TSHR coated onto tubes (human, UniProt P16473 21-764, limits assumed); test: TSHR coated tubes, competitor 125I-TSH
T1 construct: whole entry named; also called TSHR coated tubes; thyrotropin receptor

[6] = target: T1, TSHR coated onto tubes; test: TSHR coated tubes, competitor 125I-5C9 IgG
[7] = target: T1, TSHR coated onto tubes; test: TSHR coated tubes, competitor 125I-M22 IgG

cyclic AMP production; M22 Fab 3 ng/mL only (fmol/cell well) [1]: 9430 | cyclic AMP; Exp 1; M22 3 ng/mL [2]: 49.1 pmol/mL | cyclic AMP; Exp 2; M22 3 ng/mL [2]: 68.3 pmol/mL | cyclic AMP; Exp 3; M22 0.3 ng/mL [2]: 21.8 pmol/mL | cyclic AMP; Exp 4; M22 0.3 ng/mL [2]: 31.1 pmol/mL
Molecule: M22 Fab

cyclic AMP; Example 1; 5C9 F(ab′)2 10 µg/mL + TSH (fmol/cell well) [1]: 916 | cyclic AMP; Example 1; 5C9 F(ab′)2 100 µg/mL + TSH (fmol/cell well) [1]: 877 | cyclic AMP; Example 1; 5C9 F(ab′)2 100 µg/mL only (fmol/cell well) [1]: 204 | cyclic AMP; Example 2; 5C9 F(ab′)2 10 µg/mL + TSH (fmol/cell well) [1]: 1330 | cyclic AMP; Example 2; 5C9 F(ab′)2 100 µg/mL + TSH (fmol/cell well) [1]: 1060 | cyclic AMP; Example 2; 5C9 F(ab′)2 100 µg/mL only (fmol/cell well) [1]: 414
Molecule: 5C9 F(ab′)2

cyclic AMP production; 9D33 IgG 100 µg/mL + M22 Fab 3 ng/mL (fmol/cell well) [1]: 1050 | cyclic AMP production; 9D33 IgG 100 µg/mL + pTSH 3 ng/mL (fmol/cell well) [1]: 2220 | cyclic AMP production; 9D33 IgG 100 µg/mL only (fmol/cell well) [1]: 626 | Cyclic AMP, serum T1 + 0.001 µg/mL 9D33 IgG (fmol/cell well) [3]: 21600 | Cyclic AMP, serum T1 + 0.01 µg/mL 9D33 IgG (fmol/cell well) [3]: 19900 | Cyclic AMP, serum T1 + 0.1 µg/mL 9D33 IgG (fmol/cell well) [3]: 17900 | Cyclic AMP, serum T1 + 1 µg/mL 9D33 IgG (fmol/cell well) [3]: 4990 | Cyclic AMP, serum T1 + 10 µg/mL 9D33 IgG (fmol/cell well) [3]: 1460 | Cyclic AMP, serum T3 + 0.001 µg/mL 9D33 IgG (fmol/cell well) [3]: 12200 | Cyclic AMP, serum T3 + 0.01 µg/mL 9D33 IgG (fmol/cell well) [3]: 12200 | Cyclic AMP, serum T3 + 0.1 µg/mL 9D33 IgG (fmol/cell well) [3]: 12000 | Cyclic AMP, serum T3 + 1 µg/mL 9D33 IgG (fmol/cell well) [3]: 7380 | Cyclic AMP, serum T3 + 10 µg/mL 9D33 IgG (fmol/cell well) [3]: 4260 | Cyclic AMP, serum T6 + 0.001 µg/mL 9D33 IgG (single determination) (fmol/cell well) [3]: 10300 | Cyclic AMP, serum T6 + 0.01 µg/mL 9D33 IgG (fmol/cell well) [3]: 10300 | Cyclic AMP, serum T6 + 0.1 µg/mL 9D33 IgG (fmol/cell well) [3]: 8700 | Cyclic AMP, serum T6 + 1 µg/mL 9D33 IgG (fmol/cell well) [3]: 5450 | Cyclic AMP, serum T6 + 10 µg/mL 9D33 IgG (fmol/cell well) [3]: 2260 | Cyclic AMP, serum T19 + 0.001 µg/mL 9D33 IgG (fmol/cell well) [3]: 7090 | Cyclic AMP, serum T19 + 0.01 µg/mL 9D33 IgG (mean of duplicate) (fmol/cell well) [3]: 5760 | Cyclic AMP, serum T19 + 0.1 µg/mL 9D33 IgG (mean of duplicate) (fmol/cell well) [3]: 2390 | Cyclic AMP, serum T19 + 1 µg/mL 9D33 IgG (fmol/cell well) [3]: 404 | Cyclic AMP, serum T19 + 10 µg/mL 9D33 IgG (fmol/cell well) [3]: 448 | Cyclic AMP, serum T20 + 0.001 µg/mL 9D33 IgG (fmol/cell well) [3]: 7510 | Cyclic AMP, serum T20 + 0.01 µg/mL 9D33 IgG (fmol/cell well) [3]: 5390 | Cyclic AMP, serum T20 + 0.1 µg/mL 9D33 IgG (fmol/cell well) [3]: 5360 | Cyclic AMP, serum T20 + 1 µg/mL 9D33 IgG (mean of duplicate) (fmol/cell well) [3]: 980 | Cyclic AMP, serum T20 + 10 µg/mL 9D33 IgG (fmol/cell well) [3]: 204 | cyclic AMP; 100 µg/mL 9D33 IgG only (fmol/cell well) [4]: 534 | cyclic AMP; T21 + 0.001 µg/mL 9D33 IgG (fmol/cell well) [4]: 10200 | cyclic AMP; T21 + 0.01 µg/mL 9D33 IgG (fmol/cell well) [4]: 10800 | cyclic AMP; T21 + 0.1 µg/mL 9D33 IgG (fmol/cell well) [4]: 8720 | cyclic AMP; T21 + 1 µg/mL 9D33 IgG (fmol/cell well) [4]: 1380 | cyclic AMP; T21 + 10 µg/mL 9D33 IgG (fmol/cell well) [4]: 605 | cyclic AMP; T21 + 100 µg/mL 9D33 IgG (fmol/cell well) [4]: 442 | % inhib of 125I-TSH binding at 0.01 µg/mL [5]: 8% | % inhib of 125I-TSH binding at 0.1 µg/mL [5]: 31% | % inhib of 125I-TSH binding at 1 µg/mL [5]: 55% | % inhib of 125I-TSH binding at 10 µg/mL [5]: 65% | % inhib of 125I-TSH binding at 100 µg/mL [5]: 69% | % inhib of 125I-5C9 IgG binding at 0.01 µg/mL [6]: 13% | % inhib of 125I-5C9 IgG binding at 0.1 µg/mL [6]: 29% | % inhib of 125I-5C9 IgG binding at 1 µg/mL [6]: 48% | % inhib of 125I-5C9 IgG binding at 10 µg/mL [6]: 60% | % inhib of 125I-5C9 IgG binding at 100 µg/mL [6]: 70% | % inhib of 125I-M22 IgG binding at 0.01 µg/mL [7]: 13% | % inhib of 125I-M22 IgG binding at 0.1 µg/mL [7]: 27% | % inhib of 125I-M22 IgG binding at 1 µg/mL [7]: 48% | % inhib of 125I-M22 IgG binding at 10 µg/mL [7]: 60% | % inhib of 125I-M22 IgG binding at 100 µg/mL [7]: 61%
B1: 9D33 IgG (antibody, V domains shown)
VH: DVQIQQPGTELVKPGASVRLSCKASGYTFTTYWMHWVKQRPGQGLEWIGEIDPSDSYTNYNQKFKGKATLTVDKSSSTAYMHLSSLTSEDSAVYYCSRNYGSGYYFDYWGQGTTLTVSS
VL: GVEMTQSPAIMSASPGEKVTMTCSASSSVSYMHWYQQKSGTSPKRWIYDTSKLASGVPARFSGSGSGTSYSLTISSMETEDAATYYCQQWSSNPWTFGGGTKLEIK

% inhib of 125I-TSH binding at 0.01 µg/mL [5]: 13.5% | % inhib of 125I-TSH binding at 0.1 µg/mL [5]: 56% | % inhib of 125I-TSH binding at 1 µg/mL [5]: 82% | % inhib of 125I-TSH binding at 10 µg/mL [5]: 85% | % inhib of 125I-TSH binding at 100 µg/mL [5]: 88.5% | % inhib of 125I-5C9 IgG binding at 0.01 µg/mL [6]: 8% | % inhib of 125I-5C9 IgG binding at 0.1 µg/mL [6]: 23% | % inhib of 125I-5C9 IgG binding at 1 µg/mL [6]: 42% | % inhib of 125I-5C9 IgG binding at 10 µg/mL [6]: 48% | % inhib of 125I-5C9 IgG binding at 100 µg/mL [6]: 72% | % inhib of 125I-M22 IgG binding at 0.01 µg/mL [7]: 1% | % inhib of 125I-M22 IgG binding at 0.1 µg/mL [7]: 12% | % inhib of 125I-M22 IgG binding at 1 µg/mL [7]: 9% | % inhib of 125I-M22 IgG binding at 10 µg/mL [7]: 19% | % inhib of 125I-M22 IgG binding at 100 µg/mL [7]: 30%
B2: 2B4 IgG (antibody, V domains shown)
VH: DVQLQQSGTVLARPGASVRMSCKASGYSFTRYWIHWLKQRPGQGLEWIGAIFPGNRDTSYNQRFKGKAEVTAVTSASTAYLDLSSLTNEDSAVYYCTRWPYYGSIYVNFDYWGQGTTLTVSS
VL: DIVMTQSPLSLPVSLGDQASISCRTSQNLVHRNGNTYLHWYLQKPGQSPKLLIYKISNRFSGVPDRFSGSGSGTDFTLKISRVEAEDLGVYFCSQGTHVPPTFGGGTKLEIKR

% inhib of 125I-TSH binding at 0.01 µg/mL [5]: 3% | % inhib of 125I-TSH binding at 0.1 µg/mL [5]: 7% | % inhib of 125I-TSH binding at 1 µg/mL [5]: 24% | % inhib of 125I-TSH binding at 10 µg/mL [5]: 43% | % inhib of 125I-TSH binding at 100 µg/mL [5]: 56% | % inhib of 125I-5C9 IgG binding at 0.01 µg/mL [6]: 3% | % inhib of 125I-5C9 IgG binding at 0.1 µg/mL [6]: 11% | % inhib of 125I-5C9 IgG binding at 1 µg/mL [6]: 26% | % inhib of 125I-5C9 IgG binding at 10 µg/mL [6]: 43% | % inhib of 125I-5C9 IgG binding at 100 µg/mL [6]: 55% | % inhib of 125I-M22 IgG binding at 0.01 µg/mL [7]: 1% | % inhib of 125I-M22 IgG binding at 0.1 µg/mL [7]: 13% | % inhib of 125I-M22 IgG binding at 1 µg/mL [7]: 24% | % inhib of 125I-M22 IgG binding at 10 µg/mL [7]: 39% | % inhib of 125I-M22 IgG binding at 100 µg/mL [7]: 49%
B3: 17D2 IgG (antibody, V domains shown)
VH: DVQIQQSGPELVKPGASVKMSCKASGYSFTAYNMHWVKQTHGKSLEWIGYIDPYSGATSYHQKFKGKATLTVDKSSSTAYMRLNSLTSEDSAVYYCARRWDWDPYAMDYWGQGTSVTVSS
VL: SVEMSQSPAILSVSPGERISFSCRASQSIGTSIHWYQQRTNGSPRLLIKYASASISGIPSRFSGSGSGTDFTLSINSVESEDIADYYCQQSNSWPLTFGAGTKLELKR
